Molecular target: MRE11 (human) (UniProt P49959)
Experiment: cryo-EM structure

Chain of NBS1 (O60934 whole entry): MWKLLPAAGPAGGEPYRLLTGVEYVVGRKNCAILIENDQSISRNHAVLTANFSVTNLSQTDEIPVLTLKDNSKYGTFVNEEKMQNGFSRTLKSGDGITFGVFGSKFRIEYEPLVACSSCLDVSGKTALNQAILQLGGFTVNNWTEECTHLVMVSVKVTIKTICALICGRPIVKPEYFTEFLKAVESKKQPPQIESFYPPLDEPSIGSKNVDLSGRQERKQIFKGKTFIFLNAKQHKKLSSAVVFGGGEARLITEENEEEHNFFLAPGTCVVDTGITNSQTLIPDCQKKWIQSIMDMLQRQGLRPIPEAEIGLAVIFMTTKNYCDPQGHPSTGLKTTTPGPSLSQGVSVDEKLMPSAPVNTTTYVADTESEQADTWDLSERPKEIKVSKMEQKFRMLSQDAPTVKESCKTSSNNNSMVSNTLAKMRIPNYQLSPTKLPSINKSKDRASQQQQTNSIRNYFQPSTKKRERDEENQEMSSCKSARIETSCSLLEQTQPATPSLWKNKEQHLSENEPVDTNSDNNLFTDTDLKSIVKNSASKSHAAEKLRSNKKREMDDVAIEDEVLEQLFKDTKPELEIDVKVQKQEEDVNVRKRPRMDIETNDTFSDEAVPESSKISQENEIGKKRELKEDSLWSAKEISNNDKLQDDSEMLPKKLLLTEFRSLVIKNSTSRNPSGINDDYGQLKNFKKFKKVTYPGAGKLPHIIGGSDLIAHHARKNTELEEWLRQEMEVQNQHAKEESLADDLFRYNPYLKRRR
Chain of MRE11 (human) (P49959 whole entry): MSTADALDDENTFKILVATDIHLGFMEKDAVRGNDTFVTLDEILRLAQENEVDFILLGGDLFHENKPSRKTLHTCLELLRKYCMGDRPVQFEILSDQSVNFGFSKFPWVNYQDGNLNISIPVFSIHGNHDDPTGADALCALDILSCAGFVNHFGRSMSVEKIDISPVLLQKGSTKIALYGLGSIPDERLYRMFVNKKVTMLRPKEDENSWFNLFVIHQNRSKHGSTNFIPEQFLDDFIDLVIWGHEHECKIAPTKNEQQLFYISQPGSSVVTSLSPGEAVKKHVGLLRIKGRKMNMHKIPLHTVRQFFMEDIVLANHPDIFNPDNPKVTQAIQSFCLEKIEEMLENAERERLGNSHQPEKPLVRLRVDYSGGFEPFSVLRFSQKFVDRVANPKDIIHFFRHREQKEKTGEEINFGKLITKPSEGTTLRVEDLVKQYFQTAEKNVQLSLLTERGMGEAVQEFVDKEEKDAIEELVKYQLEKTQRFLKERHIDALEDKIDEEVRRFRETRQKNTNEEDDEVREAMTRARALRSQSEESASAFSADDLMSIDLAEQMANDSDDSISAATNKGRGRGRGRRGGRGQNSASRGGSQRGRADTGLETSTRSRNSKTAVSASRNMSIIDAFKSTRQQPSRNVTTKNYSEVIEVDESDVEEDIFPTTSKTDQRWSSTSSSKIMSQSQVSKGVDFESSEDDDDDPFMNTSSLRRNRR
Chain of MRE11 (P49959 whole entry): as above

| Substance | stoichiometry N | stoichiometry N (NBS1 per MRE11 dimer) |
| --- | --- | --- |
| MRE11 (from UniProt P49959) (natural protein) | 2 | – |
| NBS1 (from UniProt O60934) (natural protein) | – | 1 |

Source: publication doi:10.1101/2025.03.14.643254
